Results as given in patent US11884740 (TG THERAPEUTICS, dated 2024).

Experiments:
Experiment in all cases: cell-based or functional assay
[1] = biological target: C1q Receptor in the complement system (rabbit serum as the source of complement) (rabbit)
[2] = biological target: T1, FcγIIIA Receptor on the effector cells (human, UniProt P08637 17-254)
[3] = biological target: T1, FcγIIIA Receptor on the effector cells; remark: listed apart in the source

T1 sequence (P08637 17-254): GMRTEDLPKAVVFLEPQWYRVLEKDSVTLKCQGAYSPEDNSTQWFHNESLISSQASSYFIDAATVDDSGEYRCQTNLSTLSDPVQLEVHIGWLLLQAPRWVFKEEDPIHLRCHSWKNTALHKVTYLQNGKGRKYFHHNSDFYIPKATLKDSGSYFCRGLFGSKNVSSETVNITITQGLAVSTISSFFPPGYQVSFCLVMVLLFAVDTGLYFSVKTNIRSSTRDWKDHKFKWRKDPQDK

B1: TG-1101 (TG Therapeutics, Inc.) (antibody, human IgG1, kappa)
heavy: not shown
light: QIVLSQSPAILSASPGEKVTMTCRASSSVSYMHWYQQKPGSSPKPWIYATSNLASGVPARFSGSGSGTSYSFTISRVEAEDAATYYCQQWTFNPPTFGGGTRLEIKRTVAAPSVFIFPPSDEQLKSGTASVVCLLNNFYPREAKVQWKVDNALQSGNSQESVTEQDSKDSTYSLSSTLTLSKADYEKHKVYACEVTHQGLSSPVTKSFNRGEC
[1]
  EC50 (CDC, Jeko-1 cells, rabbit complement): 670 ng/mL
[2]
  EC50 (ADCC, Raji targets, KILR CD16a effector cells): 2.42 pg/mL
[3]
  EC50 of ADCC assay Using Primary NK Cells (Raji targets, LDH release): 49 µg/mL
